Patent US11906524B2, “Urea biosensors and uses thereof” (Duke University, priority 2015, dated 2024)
Like-named read-outs stand apart in the source and are kept apart here.

How the values were obtained:
Type in all cases: binding
[1] = Temperature- and urea-dependent fluorescence landscapes of fluorescent conjugates (Roche LightCycler); parameters: key: y, yes; n, no; conditions: Acrylodan conjugate; fluorescent response to urea
Method in brief: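 Acrylodan or Badan was attached to single-cysteine csUBP7 mutants and fluorescence was recorded over 0–4.8 M urea in 20 mM KCl, 20 mM MOPS (pH 7.4), with temperature stepped by 1K. Urea Kd came from ratiometric single-site fits, and Kd values across temperatures were fit to the Gibbs-Helmholtz equation.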

[2] = Urea titration of emission intensity spectra (Nanodrop3300) with ratiometric analysis, singly labeled conjugates
Source text: (§1) Determination of emission intensity spectra.
(§2) Ratiometric analysis of urea binding. […] 2
(§3) For a single urea-binding site, the fractional saturation is given by
(§4) [formula] where [L] is the ligand (urea) concentration and Kd the dissociation constant, ^trueKd for ytrue.
(§5) [formula] where ^appIλ2 and ^satIλ2 are the emission intensities of the monochromatic signal at wavelength λ2 of the ligand-free and ligand-bound protein, respectively.

[3] = as above; parameters: key: m, monochromatic; d, dichromatic (i.e. spectral shape changes); 0, no change; conditions: urea response
Source text: as §1, §2, §3, §4, §5

[4] = ctUBP6 Acrylodan conjugate, urea, nb = no binding, read-out: ^appKd
[5] = ctUBP6 Acrylodan conjugate, urea, nb = no binding, read-out: ^trueKd
[6] = ctUBP6 Badan conjugate, urea, ^d = noisy data and or bad fit, read-out: ^appKd
[7] = ctUBP6 Badan conjugate, urea, ^d = noisy data and or bad fit, read-out: ^trueKd
[8] = ctUBP6 Acrylodan conjugate, urea, nb = no binding

Row | Kd [2, 4] [mM] | Kd [2, 5] [mM] | Kd [2, 6] [mM] | Kd [2, 7] [mM] | ^appKd [2, 8] | ^trueKd [2, 8] | Molecule | Response [1] | Shape ([2]; ctUBP6 Badan conjugate, urea response) | Shape ([3]; ctUBP6 Acrylodan conjugate) | Shape ([3]; ctUBP6 Badan conjugate)
1 | 79 | 84 | 69 | 95 | – | – | ctUBP6 S97C: ctUBP6 97C cysteine mutant (SEQ ID NO: 51), tested as Acrylodan and Badan conjugates (conjugate, Acrylodan or Badan conjugate; ctUBP6_97C (97C substitution mutant with signal peptide replaced with M and a GGSHHHHHH at C-terminus)) MVEEPVDNKPGTDTSAEDTIKVGILHSLSGTMAISEVSLKDAELMAIEEINQAGGLLGKKIEPVIEDGASDWPTFAEKAKKLLQNDKVATVFGCWTCASRKAVLPVFEENNGLLWYPVQYEGMESSPNIFYTGAAPNQQIVPAVEWLLENKGKRFFLLGSDYVFPRTANKIIKAQLSAIGGELIAEEYTPLGHTDYSTIVNKIKTAKPDVVFNTLNGDSNVAFFKQLKDAGITSEDITVCSVSVAEEEIRGIGAENIKGHLVSWNYYQTTDTPENKEFVEKYKSKYGSDRVTDDPIEAAYIAVHLWAEAVKKAGSFEVEKVKEAAKGLEFKAPEGLVKIEGENQHLWKPVRIGEVQEDGLIKEIWSTSEAVRPDPYLKTYDWAKGLSDGGSHHHHHH | n | m/d | m | –
2 | 0.15 | 0.11 | 0.31 | 0.34 | – | – | ctUBP6 L191C: ctUBP6 191C cysteine mutant (SEQ ID NO: 54), tested as Acrylodan and Badan conjugates (conjugate, Acrylodan or Badan conjugate; ctUBP6_191C (191C substitution mutant with signal peptide replaced with M and a GGSHHHHHH at C-terminus)) MVEEPVDNKPGTDTSAEDTIKVGILHSLSGTMAISEVSLKDAELMAIEEINQAGGLLGKKIEPVIEDGASDWPTFAEKAKKLLQNDKVATVFGCWTSASRKAVLPVFEENNGLLWYPVQYEGMESSPNIFYTGAAPNQQIVPAVEWLLENKGKRFFLLGSDYVFPRTANKIIKAQLSAIGGELIAEEYTPCGHTDYSTIVNKIKTAKPDVVFNTLNGDSNVAFFKQLKDAGITSEDITVCSVSVAEEEIRGIGAENIKGHLVSWNYYQTTDTPENKEFVEKYKSKYGSDRVTDDPIEAAYIAVHLWAEAVKKAGSFEVEKVKEAAKGLEFKAPEGLVKIEGENQHLWKPVRIGEVQEDGLIKEIWSTSEAVRPDPYLKTYDWAKGLSDGGSHHHHHH | y | – | m | m
3 | – | – | – | – | nb | nb | ctUBP6 A98C: ctUBP6 98C cysteine mutant (SEQ ID NO: 52), tested as Acrylodan and Badan conjugates (conjugate, Acrylodan or Badan conjugate; ctUBP6_98C (98C substitution mutant with signal peptide replaced with M and a GGSHHHHHH at C-terminus)) MVEEPVDNKPGTDTSAEDTIKVGILHSLSGTMAISEVSLKDAELMAIEEINQAGGLLGKKIEPVIEDGASDWPTFAEKAKKLLQNDKVATVFGCWTSCSRKAVLPVFEENNGLLWYPVQYEGMESSPNIFYTGAAPNQQIVPAVEWLLENKGKRFFLLGSDYVFPRTANKIIKAQLSAIGGELIAEEYTPLGHTDYSTIVNKIKTAKPDVVFNTLNGDSNVAFFKQLKDAGITSEDITVCSVSVAEEEIRGIGAENIKGHLVSWNYYQTTDTPENKEFVEKYKSKYGSDRVTDDPIEAAYIAVHLWAEAVKKAGSFEVEKVKEAAKGLEFKAPEGLVKIEGENQHLWKPVRIGEVQEDGLIKEIWSTSEAVRPDPYLKTYDWAKGLSDGGSHHHHHH | y | – | m | m
